B1: Ribosome assembly protein METTL17, mitochondrial (Homo sapiens), Q9H7H0 (parent)
chain: MAAALKCLLTLGRWCPGLGVAPQARALAALVPGVTQVDNKSGFLQKRPHRQHPGILKLPHVRLPQALANGAQLLLLGSAGPTMENQVQTLTSYLWSRHLPVEPEELQRRARHLEKKFLENPDLSQTEEKLRGAVLHALRKTTYHWQELSYTEGLSLVYMAARLDGGFAAVSRAFHEIRARNPAFQPQTLMDFGSGTGSVTWAAHSIWGQSLREYMCVDRSAAMLVLAEKLLKGGSESGEPYIPGVFFRQFLPVSPKVQFDVVVSAFSLSELPSKADRTEVVQTLWRKTGHFLVLVENGTKAGHSLLMDARDLVLKGKEKSPLDPRPGFVFAPCPHELPCPQLTNLACSFSQAYHPIPFSWNKKPKEEKFSMVILARGSPEEAHRWPRITQPVLKRPRHVHCHLCCPDGHMQHAVLTARRHGRDLYRCARVSSWGDLLPVLTPSAFPPSTAQDPSES
partner: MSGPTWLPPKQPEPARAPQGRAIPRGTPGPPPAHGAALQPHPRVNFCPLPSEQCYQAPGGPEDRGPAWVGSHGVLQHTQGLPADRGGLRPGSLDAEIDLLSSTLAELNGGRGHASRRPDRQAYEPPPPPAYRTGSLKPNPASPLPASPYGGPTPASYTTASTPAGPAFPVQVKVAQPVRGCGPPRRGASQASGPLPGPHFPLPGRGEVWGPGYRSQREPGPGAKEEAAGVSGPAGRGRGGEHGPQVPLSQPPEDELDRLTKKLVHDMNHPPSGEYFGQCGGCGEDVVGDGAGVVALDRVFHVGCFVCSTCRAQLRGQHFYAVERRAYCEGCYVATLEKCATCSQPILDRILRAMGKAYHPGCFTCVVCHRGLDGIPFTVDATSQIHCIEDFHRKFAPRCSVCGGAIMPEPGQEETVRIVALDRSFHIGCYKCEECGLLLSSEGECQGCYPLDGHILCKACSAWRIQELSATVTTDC
B2: Genetic suppressor element 1 (Homo sapiens), Q14687 (parent)
chain: MKGMSHEPKSPSLGMLSTATRTTATVNPLTPSPLNGALVPSGSPATSSALSAQAAPSSSFAAALRKLAKQAEEPRGSSLSSESSPVSSPATNHSSPASTPKRVPMGPIIVPPGGHSVPSTPPVVTIAPTKTVNGVWRSESRQDAGSRSSSGGRERLIVEPPLPQEKAGGPAIPSHLLSTPYPFGLSPSSVVQDSRFPPLNLQRPVHHVVPPSTVTEDYLRSFRPYHTTDDLRMSSLPPLGLDPATAAAYYHPSYLAPHPFPHPAFRMDDSYCLSALRSPFYPIPTPGSLPPLHPSAMHLHLSGVRYPPELSHSSLAALHSERMSGLSAERLQMDEELRREREREREREREREADREREKEREREREKEREQEKEREREKERERELERQREQRAREKELLAAKALEPSFLPVAELHGLRGHATEERGKPSEQLTPTRAEKLKDAGLQAPKPVQHPLHPVPTPHHTVPSLISNHGIFSLPSSSAATALLIQRTNEEEKWLARQRRLRQEKEDRQSQVSEFRQQVLEQHLDMGRPPVPAEAEHRPESTTRPGPNRHEPGGRDPPQHFGGPPPLISPKPQLHAAPTALWNPVSLMDNTLETRRAESHSLHSHPAAFEPSRQAAVPLVKVERVFCPEKAEEGPRKREPAPLDKYQPPPPPPREGGSLEHQPFLPGPGPFLAELEKSTQTILGQQRASLPQAATFGELSGPLKPGSPYRPPVPRAPDPAYIYDEFLQQRRRLVSKLDLEERRRREAQEKGYYYDLDDSYDESDEEEVRAHLRCVAEQPPLKLDTSSEKLEFLQLFGLTTQQQKEELVAQKRRKRRRMLRERSPSPPTIQSKRQTPSPRLALSTRYSPDEMNNSPNFEEKKKFLTIFNLTHISAEKRKDKERLVEMLRAMKQKALSAAVADSLTNSPRDSPAVSLSEPATQQASLDVEKPVGVAASLSDIPKAAEPGKLEQVRPQELSRVQELAPASGEKARLSEAPGGKKSLSMLHYIRGAAPKDIPVPLSHSTNGKSKPWEPFVAEEFAHQFHESVLQSTQKALQKHKGSVAVLSAEQNHKVDTSVHYNIPELQSSSRAPPPQHNGQQEPPTARKGPPTQELDRDSEEEEEEDDEDGEDEEEVPKRKWQGIEAVFEAYQEHIEEQNLERQVLQTQCRRLEARHYSLSLTAEQLSHSVAELRSQKQKMVSERERLQAELDHLRKCLALPAMHWPRGYLKGYPR
partner: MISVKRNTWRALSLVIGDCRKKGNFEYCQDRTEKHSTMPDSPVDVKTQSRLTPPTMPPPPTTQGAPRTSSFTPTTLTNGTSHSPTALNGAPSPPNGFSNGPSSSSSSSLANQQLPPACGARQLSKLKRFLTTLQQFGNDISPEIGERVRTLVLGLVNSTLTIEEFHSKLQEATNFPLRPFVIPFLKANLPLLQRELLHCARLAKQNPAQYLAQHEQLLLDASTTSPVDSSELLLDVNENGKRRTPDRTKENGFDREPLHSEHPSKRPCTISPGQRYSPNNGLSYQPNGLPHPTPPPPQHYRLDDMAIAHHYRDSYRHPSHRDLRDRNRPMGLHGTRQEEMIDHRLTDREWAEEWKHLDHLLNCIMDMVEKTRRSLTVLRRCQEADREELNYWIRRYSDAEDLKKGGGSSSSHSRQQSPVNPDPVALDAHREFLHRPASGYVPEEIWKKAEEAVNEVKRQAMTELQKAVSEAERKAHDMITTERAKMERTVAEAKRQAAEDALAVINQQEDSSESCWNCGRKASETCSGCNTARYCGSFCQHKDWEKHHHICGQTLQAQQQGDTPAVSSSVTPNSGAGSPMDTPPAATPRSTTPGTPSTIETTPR
B3: Ligand of Numb protein X 2 (Homo sapiens), Q8N448 (parent)
chain: MGTTSDEMVSVEQTSSSSLNPLCFECGQQHWTRENHLYNYQNEVDDDLVCHICLQPLLQPLDTPCGHTFCYKCLRNFLQEKDFCPLDRKRLHFKLCKKSSILVHKLLDKLLVLCPFSSVCKDVMQRCDLEAHLKNRCPGASHRRVALERRKTSRTQAEIENENGPTLLDPAGTLSPEADCLGTGAVPVERHLTSASLSTWSEEPGLDNPAFEESAGADTTQQPLSLPEGEITTIEIHRSNPYIQLGISIVGGNETPLINIVIQEVYRDGVIARDGRLLAGDQILQVNNYNISNVSHNYARAVLSQPCNTLHLTVLRERRFGNRAHNHSDSNSPREEIFQVALHKRDSGEQLGIKLVRRTDEPGVFILDLLEGGLAAQDGRLSSNDRVLAINGHDLKYGTPELAAQIIQASGERVNLTIARPGKPQPGNTIREAGNHSSSSQHHTPPPYYSRPSSHKDLTQCVTCQEKHITVKKEPHESLGMTVAGGRGSKSGELPIFVTSVPPHGCLARDGRIKRGDVLLNINGIDLTNLSHSEAVAMLKASAASPAVALKALEVQIVEEATQNAEEQPSTFSENEYDASWSPSWVMWLGLPSTLHSCHDIVLRRSYLGSWGFSIVGGYEENHTNQPFFIKTIVLGTPAYYDGRLKCGDMIVAVNGLSTVGMSHSALVPMLKEQRNKVTLTVICWPGSLV
partner: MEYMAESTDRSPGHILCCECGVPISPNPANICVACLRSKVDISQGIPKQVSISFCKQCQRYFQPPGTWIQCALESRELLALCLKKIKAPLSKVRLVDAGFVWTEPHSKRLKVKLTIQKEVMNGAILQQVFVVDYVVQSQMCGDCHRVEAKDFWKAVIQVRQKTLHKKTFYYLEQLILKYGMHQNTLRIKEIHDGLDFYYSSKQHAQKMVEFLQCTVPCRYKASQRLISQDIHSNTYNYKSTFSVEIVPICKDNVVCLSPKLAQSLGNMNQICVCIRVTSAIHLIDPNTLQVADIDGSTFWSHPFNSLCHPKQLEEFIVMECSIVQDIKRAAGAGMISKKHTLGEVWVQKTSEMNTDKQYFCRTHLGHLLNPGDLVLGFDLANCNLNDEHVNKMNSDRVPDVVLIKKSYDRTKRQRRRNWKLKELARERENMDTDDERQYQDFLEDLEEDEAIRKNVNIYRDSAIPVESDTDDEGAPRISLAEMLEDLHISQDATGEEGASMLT
B4: Cell division cycle-associated 7-like protein (Homo sapiens), Q96GN5 (parent)
chain: MELATRYQIPKEVADIFNAPSDDEEFVGFRDDVPMETLSSEESCDSFDSLESGKQQDVRFHSKYFTEELRRIFIEDTDSETEDFAGFTQSDLNGKTNPEVMVVESDLSDDGKASLVSEEEEDEEEDKATPRRSRSRRSSIGLRVAFQFPTKKLANKPDKNSSSEQLFSSARLQNEKKTILERKKDCRQVIQREDSTSESEDDSRDESQESSDALLKRTMNIKENKAMLAQLLAELNSMPDFFPVRTPTSASRKKTVRRAFSEGQITRRMNPTRSARPPEKFALENFTVSAAKFAEEFYSFRRRKTIGGKCREYRRRHRISSFRPVEDITEEDLENVAITVRDKIYDKVLGNTCHQCRQKTIDTKTVCRNQGCCGVRGQFCGPCLRNRYGEDVRSALLDPDWVCPPCRGICNCSYCRKRDGRCATGILIHLAKFYGYDNVKEYLESLQKELVEDN
partner: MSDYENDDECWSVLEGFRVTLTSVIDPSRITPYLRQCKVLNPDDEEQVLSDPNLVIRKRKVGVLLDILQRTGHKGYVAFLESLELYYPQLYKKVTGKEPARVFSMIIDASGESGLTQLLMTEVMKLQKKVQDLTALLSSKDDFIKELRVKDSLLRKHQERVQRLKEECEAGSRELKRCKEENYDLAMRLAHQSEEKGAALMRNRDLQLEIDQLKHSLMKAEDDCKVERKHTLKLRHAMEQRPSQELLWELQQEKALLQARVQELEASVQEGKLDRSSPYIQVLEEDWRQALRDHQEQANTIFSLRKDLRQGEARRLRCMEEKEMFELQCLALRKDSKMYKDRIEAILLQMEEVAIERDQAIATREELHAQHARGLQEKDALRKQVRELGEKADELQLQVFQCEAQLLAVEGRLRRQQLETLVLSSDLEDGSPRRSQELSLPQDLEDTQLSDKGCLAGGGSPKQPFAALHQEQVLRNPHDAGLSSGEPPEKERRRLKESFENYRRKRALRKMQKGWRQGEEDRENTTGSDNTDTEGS

Variants of: B1
Conditions: with trip6_human TRIP6, Q15654

Row | effect of a mutation on the interaction | Variant
1 | with no effect | R212H

Variants of: B2
Conditions: with mtg8_human RUNX1T1, Q06455

Row | effect of a mutation on the interaction | Variant
2 | with no effect | E368K

Variants of: B2
Conditions: with mtg8_human RUNX1T1, Q06455
Remark: another data set of the same source

Row | effect of a mutation on the interaction | Variant
3 | with no effect | R503Q

Variants of: B3
Conditions: with nmd3_human NMD3, Q96D46

Row | effect of a mutation on the interaction | Variant
4 | with no effect | P669A

Variants of: B4
Conditions: with card9_human CARD9, Q9H257

Row | effect of a mutation on the interaction | Variant
5 | with no effect | R268H

Source: IntAct's records for PubMed 29892012
